# Tested on: MS2 coat protein
# Assay: apparent KD of MS2 coat protein; designed switch direction (-1 OFF switch, 1 ON switch): -1; higher = weaker reporter binding
# How it was run: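 Designed RNA switches were transcribed on Illumina chips by stalled E. coli RNA polymerase and titrated with SNAP-549-labelled MS2 coat protein from 0.7 or 1.5 nM, doubling to 3 µM. Step length ran from 0.8–1.5 h at the lowest concentration to 10–20 min at the highest. The apparent KD is the median over clusters for each design, from curve-fitted normalised cluster fluorescence.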
# [1] = Eterna round: R95, input ligand: microRNA oligo, concentration not stated
# [2] = Eterna round: R95, input ligand: FMN 200 uM
# [3] = Eterna round: R95, input ligand: none
# [4] = input ligand: microRNA oligo, concentration not stated
Sequence,apparent KD of MS2 coat protein (input ligand: FMN 200 uM),apparent KD of MS2 coat protein (input ligand: none),apparent KD of MS2 coat protein [1],apparent KD of MS2 coat protein [2],apparent KD of MS2 coat protein [3],apparent KD of MS2 coat protein [4]
"UGCUGACGAGGAUAUACAUGAGGAUCACCCAUGUAAGAUCAGCGACGAUAGUCGCAAUGUAGAAGGCGUCAGCA [E3/10-A3] (Eterna round: R97, puzzle: Exclusion 3)",228 nM,28.5 nM,–,–,–,–
"UAAGCAAGCGAAAGAUCCCACAUGAGGAUCACCCAUGUGCUCGUCUUAUAAGGUACUGUGACGAAAGUCACGGUACC [Sensor 3, v1 - 91 v22] (Eterna round: R97, puzzle: Sensor, turn-off variant 1)",140 nM,128 nM,–,–,–,–
GAGGAGCAAGGAUAUACGAGGAUAGGGAAGGUUGGAGAGUGACAUGAGGAUCACCCAUGUAGAAGGUGCAAGGG [JR_Exclu2_Sub095] (puzzle: Exclusion 2),–,–,108 nM,–,–,–
"GAAUAGCGAGGAUAUGCAAUGAAGGUAGUACGAUAUGGCUGACAUGAGGAUCACCCAUGUAGAAGGCGCUGAUC [EX2 #11] (Eterna round: R97, puzzle: Exclusion 2)",116 nM,65.8 nM,–,–,–,–
"UUUAAUUUUUUUUUUUUACAAGCUUUUUGCUCGUCUUAUACAUGAGGAUCACCCAUGUGAGUGGGAAGUAAAUUAUC [JMF 55] (puzzle: Sensor v3, turn-off variant 2)",–,–,248 nM,20.5 nM,19.9 nM,–
"AAAUAGCUAGAGGAUAUUGGAUAGGAUUUAGUACGAGAAGGUUAGACAUGAGGAUCACCCAUGUUGUGUUGGGA [EX6 #16] (Eterna round: R97, puzzle: Exclusion 6)",49.2 nM,52.9 nM,–,–,–,–
AAUAACAGAGGAUAUACUGUUUUAUGUGUUUGUUAUUUUGAACAUGAGGAUCACCCAUGUAGAAGGCUGAUUAA [JMF 50] (puzzle: Exclusion 2),–,–,37.4 nM,–,–,–
"CAGCUGUCAGGAUAUCGUGCAUACAACGAAAGUUCUAUGUGCGAGAAGGGACAUGAGGAUCACCCAUGUUAACG [Omei Ex4 A25] (Eterna round: R97, puzzle: Exclusion 4)",58 nM,46 nM,–,–,–,–
"GUUUUAUAUGAAGGAUAUACUUAACAUGAGGAUCACCCAUGUGGUGUUGUGAGUGAGUGAGUUUAGUAGAAGGUCAAUUAUUUU [JMF's solution 33] (Eterna round: R96, puzzle: Exclusion NG 2)",409 nM,184 nM,–,–,–,174 nM
"UUGAGCAGACGGAGAUCCAACAUGAGGAUCACCCAUGUCUCAAAAGCUUUUUGCUCAUCUUAUCGUACCUUGGUGCU [Mat - Sensor v3 - turn-off var 1 - JL Mod - D15] (puzzle: Sensor v3, turn-off variant 1)",–,–,9.75 nM,155 nM,302 nM,–
GGUUGGCGAGGAUAUACAUGAGGAUCACCCAUGUGAGGGAAAAAAGUGAGAACGAAAAGUAGAAGGCGCUGACG [salish99_ex3_r3_063] (puzzle: Exclusion 3),–,–,54 nM,10.5 nM,80.5 nM,–
"UUAGCUUCAGGAUAUACAGUGGGCUGGGAUCUAAAGAUCAAACAUGAGGAUCACCCAUGUAGAAGGGAACGGAA [Eternabot (L2) Solution 32] (Eterna round: R97, puzzle: Exclusion 2)",380 nM,145 nM,–,–,–,–
"GACCCUAGGGUCAGACGCACAAGCUUUUUGCUCGUUUUAACAUGAGGAUCACCCAUGUCUAGUGGAUCUGAUCGGGC [Ongege] (puzzle: Sensor v3, turn-off variant 2)",–,–,151 nM,26.3 nM,29.5 nM,–
"AAGUAGAGCUAAGGAUAUAUAGAGUAGUAGAAGAUAGAAGGUAGAAGUAGAAGAUGAUGAUGAAGAUGAAGUAGAUGAAGUAGA [TEST1] (Eterna round: R96, puzzle: Exclusion NG 1)",24.7 nM,19.9 nM,–,–,–,209 nM
"GUUUCGAGACGGAGAUCCGACAUGAGGAUCACCCAUGUCUCGCAAGCUUUUUGCUCGUCUUAUACUCCUCUGUUCUC [Elimod 46 - Jieux - Sensor, turn-off variant 1] (Eterna round: R97, puzzle: Sensor, turn-off variant 1)",20.9 nM,21.9 nM,–,–,–,–
"CAUAUGGGAGGAUAUGCAUAGAUAAAGAAACAUGUUCAACCACAUGAGGAUCACCCAUGUAGAAGGCCCAUAUG [Mat - Same state - Mayanna Mod - D102] (Eterna round: R96, puzzle: Exclusion 2)",266 nM,32.8 nM,–,–,–,22.7 nM
"AUAAAUUUAGAGGAUAUCUUAUAUGGGCGACCGAGAGAAGGCUGGACAUGAGGAUCACCCAUGUGCUUCGGUGA [Eternabot (L1) Solution 96] (Eterna round: R97, puzzle: Exclusion 6)",67.5 nM,75 nM,–,–,–,–

Sequence,apparent KD of MS2 coat protein (input ligand: FMN 200 uM),apparent KD of MS2 coat protein (input ligand: none),apparent KD of MS2 coat protein [1],apparent KD of MS2 coat protein [2],apparent KD of MS2 coat protein [3],apparent KD of MS2 coat protein [4]
"UGUUGUUCAGGAUAUGAUGUAUAAUACAUGAGGAUCACCCAUGUAGAUCCUGAAUUAACAUCAGAAGGGAAUGUUG [salish99_ex5_r4_102] (Eterna round: R97, puzzle: Exclusion 5)",19.4 nM,15.2 nM,–,–,–,–
GUAGAGUAAGGAUAUGCAGAAUAGGAUAGAAUGGUUAGAAUGUAGAAGGUACAUGAGGAUCACCCAUGUAAUGU [Excluse me!!!! 10 - Jieux - Exclusion 4] (puzzle: Exclusion 4),–,–,22.7 nM,20.8 nM,22.7 nM,–
ACUAGAUGAGGAUAUGCAUGUUUUCAUGUUCUUCUAGAUUAACAUGAGGAUCACCCAUGUAGAAGGCGUCUUUU [Exclusion 2 - 31] (puzzle: Exclusion 2),–,–,22.4 nM,–,–,–
"AAGAAGAGGUGAGGAUAUCGAAGUACAGGCUGGGACUCGGACUACAUGAGGAUCACCCAUGUAUACGAGAAGGCACUUCGAUAA [Quusatrare] (Eterna round: R96, puzzle: Exclusion NG 2)",12.6 nM,14.7 nM,–,–,–,12 nM
GCCUAAGCAGGAUAUUCAAUAUGUCACAUGAGGAUCACCCAUGUCCAGCGAAAGCUGGAGGGAGAAGGGCUUAGGC [Mat - Exclusion 5 - Eli mod - D100] (puzzle: Exclusion 5),–,–,101 nM,21.1 nM,106 nM,–
"AGCACGCUUUUGCUCGAUCACAUGAGGAUCACCCAUGUGUGCUAAUAGGCCAAGGUGAAAGCCUCAGACAUAGUUUA [Eternabot (L1) Solution 1] (Eterna round: R97, puzzle: Sensor, turn-off variant 1)",153 nM,173 nM,–,–,–,–
"CACCUGAAAGGAGGAUAUCUUACAUGAGGAUCACCCAUGUAAUAAAUGAGAAUUUCGAAUGUAAUAGAGAAGGCCUGAAAAGGC [Ostracism 85 - Jieux - Exclusion NG 2] (Eterna round: R96, puzzle: Exclusion NG 2)",30.6 nM,34.4 nM,–,–,–,25 nM
"UCUGGUCGAGGAUAUACGUGAGGUGUUUCGGCACUAGGUCUACAUGAGGAUCACCCAUGUAGAAGGCGAUCAGA [EX2 #64] (Eterna round: R97, puzzle: Exclusion 2)",536 nM,60.6 nM,–,–,–,–
UUUUAACAUGAGGAUCACCCAUGUGAGGAUAUCGAAAUUUAUAUUAAUAUUAUUAUUUCGAGAAGGCACAUUUU [JMF 41] (puzzle: Exclusion 1),–,–,155 nM,–,–,–
"ACAUUACAUGAGGAUCACCCAUGUGAGGAUAUGGUGCGGUAGUGUCCUGUCGCGUACUCCAGAAGGCGCGGGUG [1st #46] (Eterna round: R97, puzzle: Exclusion 1)",174 nM,194 nM,–,–,–,–
"UUUACAAGCUAAUGAUCCCACAUGAGGAUCACCCAUGUUGCUGCCGGUGACGGUAGCAUAACAUUUGCUCGUCUUAU [JL TOV1 3.58] (Eterna round: R97, puzzle: Sensor, turn-off variant 1)",1180 nM,1010 nM,–,–,–,–
"GCAUCGGCAGGAUAUACGCCGUAUGACAUGAGGAUCACCCAUGUUCCCGAGUCACAGAAAGUAGAAGGGCUGGAUA [Eternabot (L2) Solution 70] (Eterna round: R97, puzzle: Exclusion 5)",236 nM,182 nM,–,–,–,–
"UUUAAUUUUUUUUUUUUACAAGCUUUUUGCUCGUCUUAUACAUGAGGAUCACCCAUGUGGGUGGAAAGUAAAUUAUC [JMF 47] (puzzle: Sensor v3, turn-off variant 2)",–,–,96.3 nM,38.9 nM,56.2 nM,–
AUUGUAGUUGUGAGGAUAUCGUAGAUUUAUUGAAACGAGAAGGCACAUGAGGAUCACCCAUGUAAGUUGUAGGU [JR_BMOE4_Sub054] (puzzle: Brourd's mod of Exclusion 4),–,–,54 nM,–,–,–
"GUCUAGAGAGGAUAUAUUUACAGUGUACGUCGGAUGAUCGCACUUGAGGAUCACCCAAGUAGAAGGCUCGAGGG [EX2 #31] (Eterna round: R97, puzzle: Exclusion 2)",875 nM,1850 nM,–,–,–,–
"GCGGUACAUGAGGAUCACCCAUGUCAGGAUAUCCGCUGUUUGUUGAUAAGCAGGCGGUGGAGAAGGGACUUCGC [-26.7, -26 kcal, 23% A] (Eterna round: R97, puzzle: Exclusion 1)",39.7 nM,33.8 nM,–,–,–,–
GUGUAGCGAGGAUAUACAUGAGGAUCACCCAUGUGAAUAAGAUAGAAUAAGAUAAAGUGUAGAAGGUGUAGUGU [Excluse me!!! 11 - Jieux - Exclusion 3] (puzzle: Exclusion 3),–,–,56 nM,46.7 nM,54.5 nM,–

# From the supplement of paper PMC9170038
